{
  "source": "paper PMC6624267",
  "about": "“Structures of autoinhibited and polymerized forms of CARD9 reveal mechanisms of CARD9 and CARD11 activation” (Nature Communications, 2019)",
  "key": {"[1]": {"target": "the molecule itself", "assay": "negative-stain EM; CARD11^8−109 WT or mutants at 250 μM or 500 μM, 2 h at 25 °C, 50 mM HEPES, 50 mM NaCl, 0.5 mM TCEP, pH 7.0"}, "[2]": {"target": "the molecule itself", "assay": "NMR solution structure; CARD9^2−142 dimer, 1 mM with 1:1 ZnCl2, 50 mM HEPES, 300 mM NaCl, 0.5 mM TCEP, pH 7.0, 37 °C; intermolecular NOEs from a mixed labelled/unlabelled sample, RDCs"}, "[3]": {"target": "the molecule itself", "assay": "negative-stain EM; CARD9^2–152 constructs purified 1:1 with Zn2+, Zn2+ removed with a twofold excess of EDTA, incubated at the indicated concentration, time and temperature; 50 mM HEPES, 150 mM NaCl, 0.5 mM TCEP, pH 7.0; step: dimers to filaments"}, "[4]": {"target": "the molecule itself", "assay": "absorbance at 350 nm + other: negative-stain EM; CARD9^2−97 polymerisation: 1:1 Zn2+-bound CARD, EDTA added at t = 0; 50 mM Tris, 150 mM NaCl, 0.5 mM TCEP, pH 7.0, 25 °C, shaking; NS-EM grids at 90 min"}},
  "data": [
    {"protein": "CARD11^8−109 (CARD11 CARD), wild type (domain or fragment, human, UniProt Q9BXL7 8-109, looked up, CARD11 (CARMA1), human, residues 8-109 (CARD); also called WT CARD11 CARD; source: E. coli BL21(DE3), purified (Ni-NTA, TEV, Superdex 75); not shown: 6xHis, N-terminal, cleaved) MDDYMETLKDEEDALWENVECNRHMLSRYINPAKLTPYLRQCKVIDEQDEDEVLNAPMLPSKINRAGRLLDILHTKGQRGYVVFLESLEFYYPELYKLVTGK", "values": [
      {"measurement": "binding result", "setting": "[1]", "result": "binds"}
    ]},
    {"protein": "CARD9^2−142 (domain or fragment, human, UniProt Q9H257 2-142, looked up, Isotope-labelled samples with 1:1 ZnCl2 for NMR; not shown: 6xHis, N-terminal, cleaved) SDYENDDECWSVLEGFRVTLTSVIDPSRITPYLRQCKVLNPDDEEQVLSDPNLVIRKRKVGVLLDILQRTGHKGYVAFLESLELYYPQLYKKVTGKEPARVFSMIIDASGESGLTQLLMTEVMKLQKKVQDLTALLSSKDD", "values": [
      {"measurement": "binding result", "setting": "[2]", "result": "binds"}
    ]},
    {"protein": "CARD9^2−152/L115I (domain or fragment, human, UniProt Q9H257 2-152, looked up, not shown: 6xHis, N-terminal, cleaved) SDYENDDECWSVLEGFRVTLTSVIDPSRITPYLRQCKVLNPDDEEQVLSDPNLVIRKRKVGVLLDILQRTGHKGYVAFLESLELYYPQLYKKVTGKEPARVFSMIIDASGESGITQLLMTEVMKLQKKVQDLTALLSSKDDFIKELRVKDS", "values": [
      {"measurement": "binding result", "setting": "[3]", "result": "binds"}
    ]},
    {"protein": "CARD9^2−97 (CARD9 CARD alone), wild type (domain or fragment, human, UniProt Q9H257 2-97, looked up, CARD9, human, residues 2-97 (CARD); polymerisation started by EDTA; also called CARD9^2−97/WT; source: E. coli BL21(DE3), purified (Ni-NTA, TEV, Superdex 75); not shown: 6xHis, N-terminal, cleaved) SDYENDDECWSVLEGFRVTLTSVIDPSRITPYLRQCKVLNPDDEEQVLSDPNLVIRKRKVGVLLDILQRTGHKGYVAFLESLELYYPQLYKKVTGK", "values": [
      {"measurement": "binding result", "setting": "[4]", "result": "binds"}
    ]},
    {"protein": "CARD9^2−97/D43R/K58D (domain or fragment, human, UniProt Q9H257 2-97, looked up, CARD9, human, residues 2-97 (CARD); also called charge-swap mutant of the Type III interface; source: E. coli BL21(DE3), purified (Ni-NTA, TEV, Superdex 75; insoluble mutants under denaturing conditions); not shown: 6xHis, N-terminal, cleaved) SDYENDDECWSVLEGFRVTLTSVIDPSRITPYLRQCKVLNPRDEEQVLSDPNLVIRDRKVGVLLDILQRTGHKGYVAFLESLELYYPQLYKKVTGK", "values": [
      {"measurement": "binding result", "setting": "[4]", "result": "binds"}
    ]}
  ]
}
